{
  "source": "patent US20030200555",
  "proteins": {"B1": {"name": "BACE 1, soluble (transmembrane domain and cytoplasmic extension excluded) human protein produced in a baculovirus expression system (protein)", "chain": "TQHGIRLPLRSGLGGAPLGLRLPRETDEEPEEPGRRGSFVEMVDNLRGKSGQGYYVEMTVGSPPQTLNILVDTGSSNFAVGAAPHPFLHRYYQRQLSSTYRDLRKGVYVPYTQGKWEGELGTDLVSIPHGPNVTVRANIAAITESDKFFINGSNWEGILGLAYAEIARPDDSLEPFFDSLVKQTHVPNLFSLQLCGAGFPLNQSEVLASVGGSMIIGGIDHSLYTGSLWYTPIRREWYYEVIIVRVEINGQDLKMDCKEYNYDKSIVDSGTTNLRLPKKVFEAAVKSIKAASSTEKFPDGFWLGEQLVCWQAGTTPWNIFPVISLYLMGEVTNQSFRITILPQQYLRPVEDVATSQDDCYKFAISQSSTGTVMGAVIMEGFYVVFDRARKRIGFAVSACHVHDEFRTAAVEGPFVTLDMEDCGYNIPQTDESTLMT"}},
  "molecular_target": "T1, coumarin-CO-REVNFEVEFR",
  "T1 chain": "REVNFEVEFR",
  "data": [
    {"protein": "B1", "values": [
      {"measurement": "Km", "value": "The Km of the substrate is greater than 100 µM and cannot be determined due to the limit of solubility of the substrate"}
    ]}
  ]
}
